B1: NADH dehydrogenase [ubiquinone] 1 alpha subcomplex assembly factor 4 (Homo sapiens), Q9P032 (parent)
chain: MGALVIRGIRNFNLENRAEREISKMKPSVAPRHPSTNSLLREQISLYPEVKGEIARKDEKLLSFLKDVYVDSKDPVSSLQVKAAETCQEPKEFRLPKDHHFDMINIKSIPKGKISIVEALTLLNNHKLFPETWTAEKIMQEYQLEQKDVNSLLKYFVTFEVEIFPPEDKKAIRSK
B2: DNA excision repair protein ERCC-1 (Homo sapiens), P07992-3 (parent)
chain: MDPGKDKEGVPQPSGPPARKKFVIPLDEDEVPPGVAKPLFRSTQSLPTVDTSAQAAPQTYAEYAISQPLEGAGATCPTGSEPLAGETPNQALKPGAKSNSIIVSPRQRGNPVLKFVRNVPWEFGDVIPDYVLGQSTCALFLSLRYHNLHPDYIHGRLQSLGKNFALRVLLVQVDVKDPQQALKELAKMCILADCTLILAWSPEEAGRYLETYKAYEQKPADLLMEKLEQDFVSRVTECLTTVKSVNKTDSQTLLTTFGSLEQLIAASREDLALCPGLGPQKVRALGKNPRSWGKERAPNKHNLRPQSFKVKKEPKTRHSGFRL
partner: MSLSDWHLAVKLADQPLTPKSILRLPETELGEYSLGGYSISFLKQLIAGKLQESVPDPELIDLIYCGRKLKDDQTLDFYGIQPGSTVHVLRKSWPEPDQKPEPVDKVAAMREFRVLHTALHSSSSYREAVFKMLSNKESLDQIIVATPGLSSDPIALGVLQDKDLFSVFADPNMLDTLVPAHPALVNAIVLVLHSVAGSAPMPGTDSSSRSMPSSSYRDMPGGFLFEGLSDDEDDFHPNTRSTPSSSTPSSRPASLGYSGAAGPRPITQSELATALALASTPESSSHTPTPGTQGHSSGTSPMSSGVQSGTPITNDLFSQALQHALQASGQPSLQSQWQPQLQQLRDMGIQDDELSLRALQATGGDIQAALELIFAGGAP
B3: U4/U6 small nuclear ribonucleoprotein Prp31 (Homo sapiens), Q8WWY3 (parent)
chain: MSLADELLADLEEAAEEEEGGSYGEEEEEPAIEDVQEETQLDLSGDSVKTIAKLWDSKMFAEIMMKIEEYISKQAKASEVMGPVEAAPEYRVIVDANNLTVEIENELNIIHKFIRDKYSKRFPELESLVPNALDYIRTVKELGNSLDKCKNNENLQQILTNATIMVVSVTASTTQGQQLSEEELERLEEACDMALELNASKHRIYEYVESRMSFIAPNLSIIIGASTAAKIMGVAGGLTNLSKMPACNIMLLGAQRKTLSGFSSTSVLPHTGYIYHSDIVQSLPPDLRRKAARLVAAKCTLAARVDSFHESTEGKVGYELKDEIERKFDKWQEPPPVKQVKPLPAPLDGQRKKRGGRRYRKMKERLGLTEIRKQANRMSFGEIEEDAYQEDLGFSLGHLGKSGSGRVRQTQVNEATKARISKTLQRTLQKQSVVYGGKSTIRDRSSGTASSVAFTPLQGLEIVNPQAAEKKVAEANQKYFSSMAEFLKVKGEKSGLMST
partner: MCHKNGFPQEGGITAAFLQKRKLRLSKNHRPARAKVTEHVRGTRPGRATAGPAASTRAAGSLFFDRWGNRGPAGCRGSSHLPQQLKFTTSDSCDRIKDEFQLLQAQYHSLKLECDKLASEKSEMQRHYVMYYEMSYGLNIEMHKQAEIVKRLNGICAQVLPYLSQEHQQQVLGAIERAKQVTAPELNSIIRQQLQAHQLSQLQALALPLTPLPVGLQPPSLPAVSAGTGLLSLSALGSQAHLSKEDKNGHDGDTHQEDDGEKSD
B4: Beta-crystallin A4 (Homo sapiens), P53673 (parent)
chain: MTLQCTKSAGPWKMVVWDEDGFQGRRHEFTAECPSVLELGFETVRSLKVLSGAWVGFEHAGFQGQQYILERGEYPSWDAWGGNTAYPAERLTSFRPAACANHRDSRLTIFEQENFLGKKGELSDDYPSLQAMGWEGNEVGSFHVHSGAWVCSQFPGYRGFQYVLECDHHSGDYKHFREWGSHAPTFQVQSIRRIQQ
partner: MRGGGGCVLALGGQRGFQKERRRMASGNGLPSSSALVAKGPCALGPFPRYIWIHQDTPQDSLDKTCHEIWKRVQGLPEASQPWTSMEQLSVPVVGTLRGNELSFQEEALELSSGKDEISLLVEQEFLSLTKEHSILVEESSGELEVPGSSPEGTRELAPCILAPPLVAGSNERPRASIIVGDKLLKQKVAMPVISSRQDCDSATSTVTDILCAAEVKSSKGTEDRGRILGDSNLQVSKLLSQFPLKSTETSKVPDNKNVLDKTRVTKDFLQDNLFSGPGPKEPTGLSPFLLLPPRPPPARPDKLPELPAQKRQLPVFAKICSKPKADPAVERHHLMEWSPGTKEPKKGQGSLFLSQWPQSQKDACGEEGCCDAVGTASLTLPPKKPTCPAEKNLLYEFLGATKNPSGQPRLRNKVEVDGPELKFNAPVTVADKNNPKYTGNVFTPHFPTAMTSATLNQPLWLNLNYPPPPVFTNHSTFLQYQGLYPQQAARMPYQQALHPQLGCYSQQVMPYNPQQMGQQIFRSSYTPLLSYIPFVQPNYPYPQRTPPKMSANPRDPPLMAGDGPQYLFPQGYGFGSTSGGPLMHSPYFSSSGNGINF
B5: B-cell antigen receptor complex-associated protein beta chain (Homo sapiens), P40259 (parent)
chain: MARLALSPVPSHWMVALLLLLSAEPVPAARSEDRYRNPKGSACSRIWQSPRFIARKRGFTVKMHCYMNSASGNVSWLWKQEMDENPQQLKLEKGRMEESQNESLATLTIQGIRFEDNGIYFCQQKCNNTSEVYQGCGTELRVMGFSTLAQLKQRNTLKDGIIMIQTLLIILFIIVPIFLLLDKDDSKAGMEEDHTYEGLDIDQTATYEDIVTLRTGEVKWSVGEHPGQE
B6: von Hippel-Lindau disease tumor suppressor (Homo sapiens), P40337-2 (parent)
chain: MPRRAENWDEAEVGAEEAGVEEYGPEEDGGEESGAEESGPEESGPEELGAEEEMEAGRPRPVLRSVNSREPSQVIFCNRSPRVVLPVWLNFDGEPQPYPTLPPGTGRRIHSYRVYTLKERCLQVVRSLVKPENYRRLDIVRSLYEDLEDHPNVQKDLERLTQERIAHQRMGD
B7: Phakinin (Homo sapiens), Q13515 (parent)
chain: MSERRVVVDLPTSASSSMPLQRRRASFRGPRSSSSLESPPASRTNAMSGLVRAPGVYVGTAPSGCIGGLGARVTRRALGISSVFLQGLRSSGLATVPAPGLERDHGAVEDLGGCLVEYMAKVHALEQVSQELETQLRMHLESKATRSGNWGALRASWASSCQQVGEAVLENARLMLQTETIQAGADDFKERYENEQPFRKAAEEEINSLYKVIDEANLTKMDLESQIESLKEELGSLSRNYEEDVKLLHKQLAGCELEQMDAPIGTGLDDILETIRIQWERDVEKNRVEAGALLQAKQQAEVAHMSQTQEEKLAAALRVELHNTSCQVQSLQAETESLRALKRGLENTLHDAKHWHDMELQNLGAVVGRLEAELREIRAEAEQQQQERAHLLARKCQLQKDVASYHALLDREESG
B8: Cyclin-dependent kinase 4 inhibitor C (Homo sapiens), P42773 (parent)
chain: MAEPWGNELASAAARGDLEQLTSLLQNNVNVNAQNGFGRTALQVMKLGNPEIARRLLLRGANPDLKDRTGFAVIHDAARAGFLDTLQTLLEFQADVNIEDNEGNLPLHLAAKEGHLRVVEFLVKHTASNVGHRNHKGDTACDLARLYGRNEVVSLMQANGAGGATNLQ
partner: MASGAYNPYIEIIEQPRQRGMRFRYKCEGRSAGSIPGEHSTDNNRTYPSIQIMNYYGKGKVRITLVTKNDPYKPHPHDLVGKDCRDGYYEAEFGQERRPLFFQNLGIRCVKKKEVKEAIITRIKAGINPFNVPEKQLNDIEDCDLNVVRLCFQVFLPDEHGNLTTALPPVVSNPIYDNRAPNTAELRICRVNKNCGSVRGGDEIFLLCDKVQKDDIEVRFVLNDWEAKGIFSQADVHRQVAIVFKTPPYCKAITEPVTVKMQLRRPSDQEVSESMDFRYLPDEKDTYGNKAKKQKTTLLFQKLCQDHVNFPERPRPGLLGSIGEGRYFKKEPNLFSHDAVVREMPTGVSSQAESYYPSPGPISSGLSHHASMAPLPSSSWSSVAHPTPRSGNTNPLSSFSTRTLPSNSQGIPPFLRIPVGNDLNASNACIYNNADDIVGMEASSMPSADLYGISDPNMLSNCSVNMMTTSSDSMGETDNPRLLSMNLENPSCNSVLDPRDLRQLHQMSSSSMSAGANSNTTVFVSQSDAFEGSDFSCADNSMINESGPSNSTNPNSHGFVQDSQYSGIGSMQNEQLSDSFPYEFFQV
B9: Arylsulfatase A (Homo sapiens), P15289 (parent)
chain: MGAPRSLLLALAAGLAVARPPNIVLIFADDLGYGDLGCYGHPSSTTPNLDQLAAGGLRFTDFYVPVSLCTPSRAALLTGRLPVRMGMYPGVLVPSSRGGLPLEEVTVAEVLAARGYLTGMAGKWHLGVGPEGAFLPPHQGFHRFLGIPYSHDQGPCQNLTCFPPATPCDGGCDQGLVPIPLLANLSVEAQPPWLPGLEARYMAFAHDLMADAQRQDRPFFLYYASHHTHYPQFSGQSFAERSGRGPFGDSLMELDAAVGTLMTAIGDLGLLEETLVIFTADNGPETMRMSRGGCSGLLRCGKGTTYEGGVREPALAFWPGHIAPGVTHELASSLDLLPTLAALAGAPLPNVTLDGFDLSPLLLGTGKSPRQSLFFYPSYPDEVRGVFAVRTGKYKAHFFTQGSAHSDTTADPACHASSSLTAHEPPLLYDLSKDPGENYNLLGGVAGATPEVLQALKQLQLLKAQLDAAVTFGPSQVARGEDPALQICCHPGCTPRPACCHCPDPHA
partner: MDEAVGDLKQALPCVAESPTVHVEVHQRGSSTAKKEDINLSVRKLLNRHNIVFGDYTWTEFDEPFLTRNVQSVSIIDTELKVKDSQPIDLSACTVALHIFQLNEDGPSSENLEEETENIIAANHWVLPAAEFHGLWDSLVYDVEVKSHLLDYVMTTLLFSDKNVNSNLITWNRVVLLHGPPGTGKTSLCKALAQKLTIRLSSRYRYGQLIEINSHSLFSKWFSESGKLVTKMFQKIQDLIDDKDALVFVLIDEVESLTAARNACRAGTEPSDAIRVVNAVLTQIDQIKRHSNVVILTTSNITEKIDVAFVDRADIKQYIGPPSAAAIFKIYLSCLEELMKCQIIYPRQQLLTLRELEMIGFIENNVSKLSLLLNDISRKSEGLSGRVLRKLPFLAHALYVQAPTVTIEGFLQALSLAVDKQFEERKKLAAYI
B10: Emerin (Homo sapiens), P50402 (parent)
chain: MDNYADLSDTELTTLLRRYNIPHGPVVGSTRRLYEKKIFEYETQRRRLSPPSSSAASSYSFSDLNSTRGDADMYDLPKKEDALLYQSKGYNDDYYEESYFTTRTYGEPESAGPSRAVRQSVTSFPDADAFHHQVHDDDLLSSSEEECKDRERPMYGRDSAYQSITHYRPVSASRSSLDLSYYPTSSSTSFMSSSSSSSSWLTRRAIRPENRAPGAGLGQDRQVPLWGQLLLFLVFVIVLFFIYHFMQAEEGNPF
partner: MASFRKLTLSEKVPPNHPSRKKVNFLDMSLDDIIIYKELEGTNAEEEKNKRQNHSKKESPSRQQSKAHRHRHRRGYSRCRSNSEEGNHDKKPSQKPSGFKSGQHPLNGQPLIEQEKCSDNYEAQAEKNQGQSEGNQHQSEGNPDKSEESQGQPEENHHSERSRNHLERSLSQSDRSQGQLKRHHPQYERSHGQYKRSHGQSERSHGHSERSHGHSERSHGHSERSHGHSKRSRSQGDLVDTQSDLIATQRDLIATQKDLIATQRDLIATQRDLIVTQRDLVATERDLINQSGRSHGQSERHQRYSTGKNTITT

Variants of: B1
Settings: with NDUFAF3, Q9BU61-2
NDUFAF3, Q9BU61-2, sequence (Q9BU61 58-184): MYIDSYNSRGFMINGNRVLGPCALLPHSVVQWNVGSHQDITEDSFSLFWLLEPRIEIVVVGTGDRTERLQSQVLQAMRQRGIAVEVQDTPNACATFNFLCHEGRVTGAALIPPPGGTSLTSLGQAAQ

Row | effect of a mutation on the interaction | Variant
1 | with no effect | L65P

Variants of: B2
Settings: with ubl7_human UBL7, Q96S82

Row | effect of a mutation on the interaction | Variant
2 | with no effect | F231L

Variants of: B3
Settings: with TLE5, Q08117-2

Row | effect of a mutation on the interaction | Variant
3 | with no effect | L107V

Variants of: B4
Settings: with ca094_human C1orf94, Q6P1W5

Row | effect of a mutation on the interaction | Variant
4 | disrupting interaction strength | V36M
5 | disrupting interaction strength | F94S
6 | disrupting interaction strength | L69P

Variants of: B5
Settings: with sgta_human SGTA

Row | effect of a mutation on the interaction | Variant
7 | disrupting interaction strength | G137S

Variants of: B6
Settings: with mdfi_human MDFI

Row | effect of a mutation on the interaction | Variant
8 | disrupting interaction strength | S111I
9 | disrupting interaction strength | S38P

Variants of: B7
Settings: with atf4_human ATF4, P18848
atf4_human ATF4, P18848, sequence (P18848 whole entry): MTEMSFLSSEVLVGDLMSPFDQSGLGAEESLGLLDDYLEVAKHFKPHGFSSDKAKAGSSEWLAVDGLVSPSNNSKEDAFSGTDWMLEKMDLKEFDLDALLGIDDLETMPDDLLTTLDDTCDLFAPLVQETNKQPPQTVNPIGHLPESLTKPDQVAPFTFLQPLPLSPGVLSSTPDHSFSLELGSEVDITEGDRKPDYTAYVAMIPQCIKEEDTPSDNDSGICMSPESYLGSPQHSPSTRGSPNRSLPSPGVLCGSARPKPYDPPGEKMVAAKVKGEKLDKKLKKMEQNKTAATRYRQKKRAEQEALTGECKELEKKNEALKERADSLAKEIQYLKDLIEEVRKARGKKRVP

Row | effect of a mutation on the interaction | Variant
10 | with no effect | A407D
11 | with no effect | R339H

Variants of: B7
Settings: with syce1_human SYCE1, Q8N0S2
syce1_human SYCE1, Q8N0S2, sequence (Q8N0S2 whole entry): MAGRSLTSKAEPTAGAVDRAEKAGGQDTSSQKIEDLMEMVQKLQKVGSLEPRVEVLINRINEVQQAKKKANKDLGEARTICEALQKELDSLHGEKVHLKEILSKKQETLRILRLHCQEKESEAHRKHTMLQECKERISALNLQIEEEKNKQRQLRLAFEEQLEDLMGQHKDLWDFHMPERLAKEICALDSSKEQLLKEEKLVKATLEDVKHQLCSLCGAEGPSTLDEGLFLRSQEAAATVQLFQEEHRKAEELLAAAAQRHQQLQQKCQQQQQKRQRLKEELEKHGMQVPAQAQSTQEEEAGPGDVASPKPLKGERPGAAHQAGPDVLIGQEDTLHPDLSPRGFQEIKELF

Row | effect of a mutation on the interaction | Variant
12 | with no effect | A407D
13 | with no effect | R339H

Variants of: B8
Settings: with REL

Row | effect of a mutation on the interaction | Variant
14 | disrupting interaction strength | V31L

Variants of: B9
Settings: with pch2_human TRIP13, Q15645

Row | effect of a mutation on the interaction | Variant
15 | with no effect | N350S
16 | with no effect | Y201C

Variants of: B10
Settings: with luzp4_human LUZP4, Q9P127

Row | effect of a mutation on the interaction | Variant
17 | with no effect | S54F
18 | with no effect | P183H
19 | with no effect | P183T

— IntAct's records for PubMed 25910212
